Reference: paper PMC5300155, “Biochemical and biophysical investigations of the interaction between human glucokinase and pro-apoptotic BAD” (PLoS ONE, 2017)
“Also recorded” adds a separate entry of the source. Blank lines part the entries; values can stand above or below the molecule they belong to.

Assays:
GCK [1] = biological target: T1, GCK (Homo sapiens, UniProt P35557); assay: Fluorescence polarization, binding of fluorescent BH3 peptides to GCK; conditions: phosphorylation at position of Ser-118; trifluoroethanol 20–40%; S1 Fig: 34 μM f-pBH3, 40% trifluoroethanol
T1 construct: hexahistidine (N); made in house; host or cells: glucokinase auxotroph BM5340(DE3)
T1 sequence (P35557 1-465): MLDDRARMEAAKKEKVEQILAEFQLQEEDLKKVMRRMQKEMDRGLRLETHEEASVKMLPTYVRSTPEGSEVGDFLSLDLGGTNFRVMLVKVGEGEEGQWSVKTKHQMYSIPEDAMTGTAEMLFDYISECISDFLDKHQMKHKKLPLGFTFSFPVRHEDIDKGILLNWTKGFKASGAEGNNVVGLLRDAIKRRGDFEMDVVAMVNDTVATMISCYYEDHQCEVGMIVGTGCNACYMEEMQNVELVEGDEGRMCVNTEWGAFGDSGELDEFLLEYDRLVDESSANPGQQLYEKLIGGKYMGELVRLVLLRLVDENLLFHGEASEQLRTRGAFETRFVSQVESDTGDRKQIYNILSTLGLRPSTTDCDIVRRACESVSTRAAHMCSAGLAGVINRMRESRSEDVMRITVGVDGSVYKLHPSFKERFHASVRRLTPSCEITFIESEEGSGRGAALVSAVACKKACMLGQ
Method: (§1) Recombinant human pancreatic GCK containing an N-terminal hexahistidine tag was produced in the glucokinase auxotroph BM5340(DE3) and purified using a previously described procedure. TEV protease was expressed as a GST-fusion protein from a pGEX plasmid encoding the S219V variant, provided by David Waugh (Addgene plasmid 8827). Expression was induced with IPTG (1 mM) for 4 h at 30°C. Cell pellets were resuspended in Tris buffer (50 mM, pH 8.0) containing NaCl (100 mM), glycerol (10% v/v), benzamidine (1 mM) and dithiothreitol (10 mM) and lysed via French Press. Polyethyleneimine (0.1%) was added to the lysate and protein was purified on a glutathione-affinity column (GSTrap, GE Sciences). TEV protease was flash frozen and stored at -80°C for up to 1 month.
A fluorescence polarization assay developed by Zhang, et al. was utilized to measure interactions between BAD and its binding partners. Two 21-residue FITC-labeled peptides containing the BH3 domain of BAD were synthesized and purified to >95% by Peptide2.0 (f-BH3 = NLWAAQRYGRELRRMSDK(FITC)FVD; f-pBH3 = NLWAAQRYGRELRRM(p)SDK(FITC) FVD). Polarization was measured at room temperature with an excitation wavelength of 485 nm and an emission wavelength of 530 nm using a SpectraMax M5 microplate reader (Molecular Devices). […]

[2] = Circular dichroism spectroscopy (secondary structure); format: physicochemical; conditions: relative to (unmodified) BAD-GST, 25°C, pH 7.8
Method: Proteins were dialyzed overnight into potassium phosphate buffer (50 mM, pH 7.8) containing KCl (50 mM), glycerol (5% v/v), and TCEP (4 mM). CD spectra were recorded on an AVIV 202 CD spectrometer at 25°C with protein concentrations ranging from 3–15 μM. Spectra were recorded from 200–260 nm in 10 mm pathlength cuvettes using a 1 nm step resolution and 3 s integration time. Three scans were recorded per sample, averaged, and baseline subtracted with appropriate buffer controls. CD signals were converted to molar ellipticity and deconvoluted using CDPro Software.

GCK [3] = conditions: rabbit reticulocyte lysates; ref [8]; cited from earlier work
Source text: Several lines of evidence support a direct interaction between GCK and BAD. […] Kinetic assays re ... || The first indication of a putative interaction between full-length BAD and GCK came from the observation that both proteins co-localize with one another in a macromolecular complex purified from mouse hepatocyte mitochondrial extracts. […] In contrast to these experiments, our study utilizes active, highly purified homogeneous preparations of both proteins. The biochemical and biophysical e ...

Bcl-xL = biological target: T2, Bcl-xL (Homo sapiens, UniProt Q07817, DEL45-84); assay: Fluorescence polarization competition with f-BH3 for binding to Bcl-xL; conditions: for IC50: competitor 0–50 μM, room temperature, 15 min
T2 construct: made in house
T2 sequence (Q07817 with tags, fused parts or gaps DEL45-84): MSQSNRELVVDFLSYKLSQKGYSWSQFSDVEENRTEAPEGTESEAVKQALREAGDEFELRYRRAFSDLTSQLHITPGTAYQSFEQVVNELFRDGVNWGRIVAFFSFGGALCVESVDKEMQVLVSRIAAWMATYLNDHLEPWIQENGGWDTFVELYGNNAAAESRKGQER
Method: Exon 1 of human bcl-xl lacking the C-terminal residues 189–233 was obtained from Stanley Korsmeyer (Addgene plasmid 8755) and site-directed mutagenesis was performed to create the Δ45–84, Δ210–233 variant. Bcl-xL was expressed and purified using a modified procedure described previously. Briefly, Bcl-xL was purified by nickel affinity chromatography and dialyzed against potassium phosphate buffer (20 mM, pH 7.4) containing NaCl (50 mM), EDTA (1 mM), and DTT (10 mM). Protein was applied to a Superdex 200 10/30 HR size-exclusion column, at a flow rate of 0.02 mL/min, to remove aggregate and oligomers prior to binding assays.
A fluorescence polarization assay developed by Zhang, et al. was utilized to measure interactions between BAD and its binding partners. Two 21-residue FITC-labeled peptides containing the BH3 domain of BAD were synthesized and purified to >95% by Peptide2.0 (f-BH3 = NLWAAQRYGRELRRMSDK(FITC)FVD; f-pBH3 = NLWAAQRYGRELRRM(p)SDK(FITC) FVD). Polarization was measured at room temperature with an excitation wavelength of 485 nm and an emission wavelength of 530 nm using a SpectraMax M5 microplate reader (Molecular Devices). Experiments to measure binding constants of the fluorescent peptides to Bcl-xL or GCK were performed in black 96-well plates. Each well contained 15 nM peptide, 60 μL BAD buffer (0.1 M Tris, 0.1 M KCl, 0.5 M arginine, 2.5 mM CHAPS, 5 mM TCEP, 10% glycerol, pH 8.5) and variable concentrations of Bcl-xL (0–2.25 μM) or GCK (0–400 μM) in assay buffer (20 mM phosphate buffer, pH 7.4, 1 mM EDTA, 50 mM NaCl, 10 mM DTT) in a final volume of 120 μL. High GCK concentrations were chosen in an effort to detect a signal indicating a binding event. Assays containing GCK also contained 250 mM glucose. […] Plates were incubated at room temperature in the dark for 15 min prior to polarization measurements.

human pancreatic GCK [4] = biological target: T3, human pancreatic GCK (Homo sapiens, UniProt P35557); assay: GCK activity, G6PDH-linked assay (lab's routine assay, 25°C); format: biochemical
T3 construct: hexahistidine (N); made in house; host or cells: glucokinase auxotroph BM5340(DE3)
T3 sequence (P35557 1-465): T1 sequence (P35557 1-465)
Method: as §1
GCK activity was assayed using a glucose 6-phosphate dehydrogenase (G6PDH)-linked assay at 25°C. 50 nM GCK was assayed in buffer containing HEPES (100 mM, pH 7.4), KCl (50 mM), NADP^+ (0.5 mM), DTT (10 mM), MgCl2 (7 mM), G6PDH (1.5 U) and glucose (0–100 mM) in a total volume of […]. Addition of ATP (6 mM) initiated the reaction. Production of NADPH was measured at 340 nm. To determine the effect of BAD on GCK activity, 5 μL of BAD or buffer control was added to the reaction in a final volume of 100 μL. K0.5 values were determined by fitting to the Hill equation. The effect of BAD on GCK activity is reported as the percent rate increase at individual glucose concentrations, calculated as the average of a minimum of four rates of BAD-containing assays divided by the average of rates of BAD buffer-containing assays. The results represent the average of at least three independent preparations of pure BAD.

BAD-deficient islets = conditions: ref [8]; cited from earlier work
Source text: The mitochondrial complex fails to form in the absence of BAD, resulting in reduced glucose-driven oxygen consumption and impaired GSIS in β-cells. […] In hepatocytes, BAD deficiency results in insulin resis ...

[5] = Isoelectric focusing of phosphorylated BAD-GST; format: physicochemical; conditions: IEF, IPG strips pH 4–7; four distinct populations
Method: Recombinant BAD-GST was phosphorylated with PKAc after refolding. 1 unit PKAc was added to 10 units BAD-GST and the reaction was dialyzed against BAD refolding buffer (0.1 M Tris, 0.1 M KCl, 0.2 M arginine, 2.5 mM CHAPS, 5 mM DTT, 10% glycerol, pH 8.5) containing ATP (3 mM) and MgCl2 (20 mM). Reactions were carried out at 4°C overnight. PKAc and excess ATP were removed from BAD-GST via glutathione-affinity chromatography (GSTrap, GE Healthcare). The extent of phosphorylation was established via mass spectrometry and 2D-IEF-SDS-PAGE using ReadyStrip IPG strips (Bio-Rad) with a pH range of 4–7. pET28badgst was subjected to site-directed mutagenesis to remove sites of phosphorylation (Ser-to-Ala) or to incorporate phosphorylation mimics (Ser-to-Asp) using the QuikChange™ Site-directed mutagenesis kit (Stratagene).

[6] = Analytical ultracentrifugation sedimentation velocity (oligomerization, shape); format: physicochemical; conditions: sedimentation velocity, 20°C, 50,000 x g; unity = compact sphere
Method: (§2) Sedimentation velocity experiments were conducted with an Optima XLI Ultracentrifuge (Beckman Coulter) using a four-hole rotor with three 420 μL samples in standard double-sector Epon centerpieces equipped with sapphire windows. Absorbance and interference data were collected simultaneously. Size-exclusion purified proteins were concentrated to OD280 nm = 0.3–1.0 prior to centrifugation. For complex formation, proteins were mixed in a 1:1 molar ratio in BAD buffer (0.1 M Tris, 0.1 M KCl, 0.5 M arginine, 2.5 mM CHAPS, 5 mM TCEP, 10% glycerol, pH 8.5) and incubated on ice 30 min prior to the start of the experiment. Experiments were carried out at 20°C and 50,000 x g. Data were analyzed with Ultrascan III software using a minimum of 70 scans per sample for analysis. Van Holde-Weischet analysis was performed to obtain S20,W values.

human pancreatic GCK [7] = biological target: T3, human pancreatic GCK; assay: Analytical ultracentrifugation sedimentation velocity of equimolar mixtures with GCK; format: binding; conditions: equimolar mixture, BAD buffer pH 8.5, 20°C, 50,000 x g
Method: as §2

Binding to GCK, phosphorylated fluorescent peptide / trifluoroethanol (GCK [1]): does not affect f-pBH3 binding to GCK
Molecule: NLWAAQRYGRELRRM(p)SDK(FITC) FVD [f-pBH3, 21-residue FITC-labeled phosphorylated peptide containing the BH3 domain of BAD]

IC50 (Bcl-xL; 200 nM f-BH3, 50 nM Bcl-xL): 440 nM
Increase in GCK activity, GST tag removed (human pancreatic GCK [4]; 0.5, 0.78 and 1.0 mM glucose, data not shown): 7–12%
B1: BAD: BAD following cleavage and removal of the GST tag (protein)
chain: MFQIPEFEPSEQEDSSSAERGLGPSPAGDGPSGSGKHHRQAPGLLWDASHQQEQPTSSSHHGGAGAVEIRSRHSSYPAGTEDDEGMGEEPSPFRGRSRSAPPNLWAAQRYGRELRRMSDEFVDSFKKGLPRPKSAGTATQMRQSSSWTRVFQSWWDRNLGRGSSAPSQ
modifications: left off: His6, N-terminal, state not stated | GST, C-terminal, kept
CD comparison (in words) [2]: nearly identical
Coimmunoprecipitation with GCK (GCK [3]): co-immunoprecipitates with GCK; also recorded: can coimmunoprecipitate with GCK
Effect on impaired insulin response or GSIS of BAD-deficient islets (BAD-deficient islets): restores GSIS

IC50 (Bcl-xL; 200 nM f-BH3, 50 nM Bcl-xL): ≥ 1600 nM
Increase in GCK activity over unmodified BAD-GST (human pancreatic GCK [4]; 1.0 mM glucose, BAD-GST phosphorylated by PKA): 5%
Hill coefficient H of GCK in presence of pBAD-GST (human pancreatic GCK [4]; Fig 6A, GCK alone: H = 1.7): 1.6
Difference in effect on GCK activity, phosphorylated versus unmodified BAD-GST (human pancreatic GCK [4]; all glucose concentrations other than 1.0 mM): no statistical difference
Maximum increase in GCK activity (human pancreatic GCK [4]; glucose below K0.5, phosphorylated BAD > 2 μM): 15%
B2: phosphorylated BAD-GST: BAD-GST phosphorylated in vitro with PKAc at S75, S99, S118 (protein)
chain: B1 chain
modifications: phosphoserine at 75, 99 and 118 (all three sites found by mass spectrometry; four populations by isoelectric focusing); left off: His6, N-terminal, state not stated | GST, C-terminal, kept
notes: BAD-GST phosphorylated in vitro with PKAc at S75, S99, S118
pI values [5]: 4–7
Frictional ratio f/f0 [6]: 3.1
CD comparison (in words) [2]: a higher degree of α-helical content compared to unmodified BAD-GST
Competition with f-BH3 binding to Bcl-xL (in words) (Bcl-xL; 200 nM f-BH3, 50 nM Bcl-xL, GST up to 10 μM, BAD-GST phosphorylated by PKA): abrogrates the protein’s ability to compete with f-BH3
Ability to interact with Bcl-xL (in words) (Bcl-xL; ITC and fluorescence polarization assays): significantly impaired in their ability to interact with Bcl-xL
K0.5 (glucose) of GCK in presence of pBAD-GST (human pancreatic GCK [4]; Fig 6A, GCK alone: K0.5 = 8.6 mM, Hill equation fit): 8.8 mM
kcat of GCK in presence of pBAD-GST (human pancreatic GCK [4]; Fig 6A, GCK alone: kcat = 38.1 s^-1): 38.4 s^-1
Complex with GCK by analytical ultracentrifugation (human pancreatic GCK [7]): no evidence of a higher molecular weight complex
